The assay concerns the target RBBP4, recombinant, for fluorescence polarization (human), Q09028. As to the kind of experiment: fluorescence polarisation; competitive: unlabeled peptide (1.0–0.0 mM series) added to preformed complex of 1 nM FAM tracer and 40 nM RBBP4; 50 mM Tris-HCl pH 7.5, 150 mM NaCl, 0.02% Triton X-100; read after 60 min; ki from IC50. (In general: Polarisation of emitted light reports the rotation of a fluorescent probe.)

For orientation: Ki means the equilibrium dissociation constant of an inhibitor or competing ligand from its target.

Sequence of RBBP4, recombinant, for fluorescence polarization (human), Q09028 (Q09028 whole entry): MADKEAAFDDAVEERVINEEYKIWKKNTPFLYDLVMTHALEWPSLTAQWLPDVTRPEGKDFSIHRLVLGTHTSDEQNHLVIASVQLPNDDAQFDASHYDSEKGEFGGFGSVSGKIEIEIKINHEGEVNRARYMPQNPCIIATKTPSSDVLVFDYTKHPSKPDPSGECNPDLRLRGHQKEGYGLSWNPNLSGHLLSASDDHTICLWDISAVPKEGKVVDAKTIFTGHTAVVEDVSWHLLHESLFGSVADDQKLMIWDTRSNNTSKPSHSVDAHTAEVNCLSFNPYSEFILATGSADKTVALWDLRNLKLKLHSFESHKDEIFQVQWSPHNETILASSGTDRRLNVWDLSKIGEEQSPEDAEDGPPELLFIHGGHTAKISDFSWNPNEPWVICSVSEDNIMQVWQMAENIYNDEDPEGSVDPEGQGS

Consider KHRRKQKTPKKF (modifications not checked) [ZNF512B NIM peptide (unlabeled ZNF512B iNIM)], for which the Ki came out at 19 nM.

The values above are taken from article PMC11602157, “ZNF512B binds RBBP4 via a variant NuRD interaction motif and aggregates chromatin in a NuRD complex-independent manner” (Nucleic Acids Research, 2024).
